From publication PMC2990581, “Molecular imaging of glioblastoma multiforme using anti-insulin-like growth factor-binding protein-7 single-domain antibodies” (British Journal of Cancer, 2010)

Columns and labels:
[1] = target: T1, IGFBP7 in human glioblastoma multiforme tissue (Homo sapiens, UniProt Q16270); test: immunostaining of cells or tissue; frozen human or mouse brain tumour sections fixed in methanol; sdAb 4.43 (1:100 of 1 mg/ml) for 3 h at RT; detected with anti-c-myc antibody and alexa 647 secondary; details: one partner purified
T1 construct: source: endogenous, frozen human GBM tissue sections

[2] = target: IGFBP7 in mouse vessels of orthotopic U87MG.EGFRvIII glioblastoma (Mus musculus, UniProt Q61581); test: cell-based or functional assay
[3] = target: T2, recombinant human insulin-like growth factor-binding protein 7 (IGFBP7), R&D Systems (human) (UniProt Q16270); test: SPR; Biacore 3000; ~1400 RU recombinant human IGFBP7 amine-coupled on a CM5 chip, ovalbumin as reference; sdAb flowed at 25-200 nM; 25°C; 10 mM HEPES pH 7.4, 150 mM NaCl, 3 mM EDTA, 0.005% P20; 40 μl/min; 1:1 kinetic fit of the 25 nM data, steady-state affinity model and Scatchard plot of the equilibrium data
T2 sequence: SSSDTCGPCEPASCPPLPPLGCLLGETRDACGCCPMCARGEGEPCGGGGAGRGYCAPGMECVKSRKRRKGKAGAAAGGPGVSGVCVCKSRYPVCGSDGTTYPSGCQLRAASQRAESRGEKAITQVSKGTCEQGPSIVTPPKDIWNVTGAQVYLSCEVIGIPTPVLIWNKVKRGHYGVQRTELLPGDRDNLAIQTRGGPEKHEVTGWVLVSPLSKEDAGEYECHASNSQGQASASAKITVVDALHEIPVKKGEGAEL

Chain of IGFBP7 in mouse vessels of orthotopic U87MG.EGFRvIII glioblastoma (Q61581 26-281): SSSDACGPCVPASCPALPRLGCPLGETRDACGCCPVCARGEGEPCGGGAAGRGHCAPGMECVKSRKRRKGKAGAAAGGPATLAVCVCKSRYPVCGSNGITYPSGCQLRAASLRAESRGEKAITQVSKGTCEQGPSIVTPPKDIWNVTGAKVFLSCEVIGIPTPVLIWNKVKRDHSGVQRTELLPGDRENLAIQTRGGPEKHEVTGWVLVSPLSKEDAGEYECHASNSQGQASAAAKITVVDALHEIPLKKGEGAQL

B1: anti-IGFBP7 single-domain antibody (sdAb) 4.43 (VHH)
VHH: QVKLEESGGGLVQAGGSLRLSCAASGRTSRRYAMGWFRQAPGKEREFVAGISRSGDGTHYAYSVKGRFTISRDNAANTVELQMNSLKPEDTAVYFCAAARTAFYYYGNDYNYWGQGTQVTVSS
notes: VHH isolated from an immune llama phage display library; For in vivo imaging the same sdAb was labelled with Cy5.5 succinimidyl ester (dye/antibody ratio of one) or conjugated to PEGylated Fe3O4 nanoparticles; also called anti-IGFBP7 sdAb; source: expressed periplasmically (vector pSJF2), purified by IMAC; not shown: c-Myc, C-terminal, kept
- binding result [1]: binds
- brain tumour fluorescence signal by in vivo optical imaging 24 h after i.v. injection of 50 μg anti-IGFBP7 sdAb-Cy5.5, against negative control (NC) sdAb-Cy5.5 [2]: 6 fold
- Kd [3]: 20 nM
- koff [3]: 0.0013 s⁻¹
